To fix the notation:
B1: DVD2799 (bispecific antibody, IgG1)
VH: EVQLVQSGAEVKKPGASVKVSCKASGYTFTKYWLGWVRQAPGQGLEWMGDIYPGYDYTHYNEKFKDRVTLTTDTSTSTAYMELRSLRSDDTAVYYCARSDGSSTYWGQGTLVTVSSASTKGPEVQLVQSGAEVKKPGASVKVSCKASGYTFANYGIIWVRQAPGQGLEWMGWINTYTGKPTYAQKFQGRVTMTTDTSTSTAYMELSSLRSEDTAVYYCARKLFTTMDVTDNAMDYWGQGTTVTVSS
VL: DVLMTQTPLSLPVTPGEPASISCTSSQNIVHSNGNTYLEWYLQKPGQSPQLLIYKVSNRFSGVPDRFSGSGSGTDFTLKISRVEAEDVGVYYCFQVSHVPYTFGGGTKVEIKRTVAAPDIQMTQSPSSLSASVGDRVTITCRASQDISQYLNWYQQKPGKAPKLLIYYTSRLQSGVPSRFSGSGSGTDFTLTISSLQPEDFATYFCQQGNTWPPTFGQGTKLEIKR
B2: DVD3026 (bispecific antibody, IgG1)
VH: B1 VH with A152N, T224N, M226V, D227A
VL: DVLMTQTPLSLPVTPGEPASISCTSSQNIVHSNGNTYLEWYLQKPGQSPQLLIYKVSNRFSGVPDRFSGSGSGTDFTLKISRVEAEDVGVYYCFQVSHVPYTFGGGTKVEIKRTVAAPSVFIFPPDIQMTQSPSSLSASVGDRVTITCRASQDIENYLNWYQQKPGKAPKLLIYYTSRLQSGVPSRFSGSGSGTDFTLTISSLQPEDFATYFCQQGNTQPPTFGQGTKLEIKR
B3: DVD2801 (bispecific antibody, IgG1)
VH: B1 VH
VL: B2 VL with E155S, N156Q, Q219W
B4: DVD3024 (bispecific antibody, IgG1)
VH: B1 VH with A152N, T224N, M226V, D227A
VL: B1 VL with S148E, Q149N, W212Q
B5: DVD3027 (bispecific antibody, IgG1)
VH: EVQLVQSGAEVKKPGASVKVSCKASGYTFTKYWLGWVRQAPGQGLEWMGDIYPGYDYTHYNEKFKDRVTLTTDTSTSTAYMELRSLRSDDTAVYYCARSDGSSTYWGQGTLVTVSSASTKGPSVFPLAPEVQLVQSGAEVKKPGASVKVSCKASGYTFNNYGIIWVRQAPGQGLEWMGWINTYTGKPTYAQKFQGRVTMTTDTSTSTAYMELSSLRSEDTAVYYCARKLFNTVAVTDNAMDYWGQGTTVTVSS
VL: B1 VL with S148E, Q149N, W212Q
B6: DVD2802 (bispecific antibody, IgG1)
VH: B5 VH with N159A, N231T, V233M, A234D
VL: B1 VL
B7: DVD3023 (bispecific antibody, IgG1)
VH: EVQLVQSGAEVKKPGASVKVSCKASGYTFTKYWLGWVRQAPGQGLEWMGDIYPGYDYTHYNEKFKDRVTLTTDTSTSTAYMELRSLRSDDTAVYYCARSDGSSTYWGQGTLVTVSSGGGGSGGGGSEVQLVQSGAEVKKPGASVKVSCKASGYTFNNYGIIWVRQAPGQGLEWMGWINTYTGKPTYAQKFQGRVTMTTDTSTSTAYMELSSLRSEDTAVYYCARKLFNTVAVTDNAMDYWGQGTTVTVSS
VL: DVLMTQTPLSLPVTPGEPASISCTSSQNIVHSNGNTYLEWYLQKPGQSPQLLIYKVSNRFSGVPDRFSGSGSGTDFTLKISRVEAEDVGVYYCFQVSHVPYTFGGGTKVEIKRGGSGGGGSGDIQMTQSPSSLSASVGDRVTITCRASQDIENYLNWYQQKPGKAPKLLIYYTSRLQSGVPSRFSGSGSGTDFTLTISSLQPEDFATYFCQQGNTQPPTFGQGTKLEIKR
B8: DVD3019 (bispecific antibody, IgG1)
VH: EVQLVQSGAEVKKPGASVKVSCKASGYTFNNYGIIWVRQAPGQGLEWMGWINTYTGKPTYAQKFQGRVTMTTDTSTSTAYMELSSLRSEDTAVYYCARKLFNTVAVTDNAMDYWGQGTTVTVSSASTKGPEVQLVQSGAEVKKPGASVKVSCKASGYTFTKYWLGWVRQAPGQGLEWMGDIYPGYDYTHYNEKFKDRVTLTTDTSTSTAYMELRSLRSDDTAVYYCARSDGSSTYWGQGTLVTVSS
VL: DIQMTQSPSSLSASVGDRVTITCRASQDIENYLNWYQQKPGKAPKLLIYYTSRLQSGVPSRFSGSGSGTDFTLTISSLQPEDFATYFCQQGNTQPPTFGQGTKLEIKRTVAAPDVLMTQTPLSLPVTPGEPASISCTSSQNIVHSNGNTYLEWYLQKPGQSPQLLIYKVSNRFSGVPDRFSGSGSGTDFTLKISRVEAEDVGVYYCFQVSHVPYTFGGGTKVEIKR
B9: DVD3022 (bispecific antibody, IgG1)
VH: EVQLVQSGAEVKKPGASVKVSCKASGYTFNNYGIIWVRQAPGQGLEWMGWINTYTGKPTYAQKFQGRVTMTTDTSTSTAYMELSSLRSEDTAVYYCARKLFNTVAVTDNAMDYWGQGTTVTVSSASTKGPSVFPLAPEVQLVQSGAEVKKPGASVKVSCKASGYTFTKYWLGWVRQAPGQGLEWMGDIYPGYDYTHYNEKFKDRVTLTTDTSTSTAYMELRSLRSDDTAVYYCARSDGSSTYWGQGTLVTVSS
VL: B8 VL
B10: DVD3021 (bispecific antibody, IgG1)
VH: B8 VH
VL: DIQMTQSPSSLSASVGDRVTITCRASQDIENYLNWYQQKPGKAPKLLIYYTSRLQSGVPSRFSGSGSGTDFTLTISSLQPEDFATYFCQQGNTQPPTFGQGTKLEIKRTVAAPSVFIFPPDVLMTQTPLSLPVTPGEPASISCTSSQNIVHSNGNTYLEWYLQKPGQSPQLLIYKVSNRFSGVPDRFSGSGSGTDFTLKISRVEAEDVGVYYCFQVSHVPYTFGGGTKVEIKR
B11: DVD3203 (bispecific antibody, IgG1)
VH: EVQLVESGGGLVQPGGSLRLSCAASGFTFSNYGVTWVRQAPGKGLEWVSMIWADGSTHYASSVKGRFTISRDNSKNTLYLQMNSLRAEDTAVYYCAREWQHGPVAYWGQGTLVTVSSGGGGSGGGGSEVQLVESGGGLVQPGGSLRLSCAASGFSFSKYWLGWVRQAPGKGLEWVSDIYPGYDYTHYNEKFKDRFTISADTSKNTAYLQMNSLRAEDTAVYYCARSDGSSTYWGQGTLVTVSS
VL: DIQMTQSPSSLSASVGDRVTITCRASQLVSSAVAWYQQKPGKAPKLLIYWASARHTGVPSRFSGSGSGTDFTLTISSLQPEDFATYYCQQHYKTPFTFGQGTKLEIKRGGSGGGGSGDIQMTQSPSSLSASVGDRVTITCTSSQNIVHSNGNTYLEWYQQKPGKAPKLLIYKVSNRFSGVPSRFSGSGSGTDFTLTISSLQPEDFATYYCFQVSHVPYTFGQGTKVEIKR
B12: DVD3018 (bispecific antibody, IgG1)
VH: EVQLVQSGAEVKKPGASVKVSCKASGYTFNNYGIIWVRQAPGQGLEWMGWINTYTGKPTYAQKFQGRVTMTTDTSTSTAYMELSSLRSEDTAVYYCARKLFNTVAVTDNAMDYWGQGTTVTVSSGGGGSGGGGSEVQLVQSGAEVKKPGASVKVSCKASGYTFTKYWLGWVRQAPGQGLEWMGDIYPGYDYTHYNEKFKDRVTLTTDTSTSTAYMELRSLRSDDTAVYYCARSDGSSTYWGQGTLVTVSS
VL: DIQMTQSPSSLSASVGDRVTITCRASQDIENYLNWYQQKPGKAPKLLIYYTSRLQSGVPSRFSGSGSGTDFTLTISSLQPEDFATYFCQQGNTQPPTFGQGTKLEIKRGGSGGGGSGDVLMTQTPLSLPVTPGEPASISCTSSQNIVHSNGNTYLEWYLQKPGQSPQLLIYKVSNRFSGVPDRFSGSGSGTDFTLKISRVEAEDVGVYYCFQVSHVPYTFGGGTKVEIKR
B13: DVD3204 (bispecific antibody, IgG1)
VH: EVQLVESGGGLVQPGGSLRLSCAASGFTFSNYGVTWVRQAPGKGLEWVSMIWADGSTHYASSVKGRFTISRDNSKNTLYLQMNSLRAEDTAVYYCAREWQHGPVAYWGQGTLVTVSSASTKGPEVQLVESGGGLVQPGGSLRLSCAASGFSFSKYWLGWVRQAPGKGLEWVSDIYPGYDYTHYNEKFKDRFTISADTSKNTAYLQMNSLRAEDTAVYYCARSDGSSTYWGQGTLVTVSS
VL: DIQMTQSPSSLSASVGDRVTITCRASQLVSSAVAWYQQKPGKAPKLLIYWASARHTGVPSRFSGSGSGTDFTLTISSLQPEDFATYYCQQHYKTPFTFGQGTKLEIKRTVAAPDIQMTQSPSSLSASVGDRVTITCTSSQNIVHSNGNTYLEWYQQKPGKAPKLLIYKVSNRFSGVPSRFSGSGSGTDFTLTISSLQPEDFATYYCFQVSHVPYTFGQGTKVEIKR

Where a chain is given by its changes, count along the chain named.

For this test, the target named is Recombinant Human TNF-α/TNFSF1A (human, UniProt P01375 77-233). In words: cell-based or functional assay.
Recombinant Human TNF-α/TNFSF1A, sequence (P01375 77-233 limits assumed): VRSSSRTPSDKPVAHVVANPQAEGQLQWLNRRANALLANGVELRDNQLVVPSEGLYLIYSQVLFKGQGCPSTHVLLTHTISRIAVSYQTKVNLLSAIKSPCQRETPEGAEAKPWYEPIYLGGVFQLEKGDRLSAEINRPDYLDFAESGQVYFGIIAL
For the molecule B1, the “C-Terminal VD huTNFα Neutralization Assay IC50” value was determined as 3.08 nM.

Regarding B2, the “C-Terminal VD huTNFα Neutralization Assay IC50” value amounted to 0.038 nM. On the same count and under the same terms, the result for B3 reads 0.116 nM.

With B4, the “C-Terminal VD huTNFα Neutralization Assay IC50” value turned out to be 0.934 nM. Same read-out and setting: the result for B5 reads 0.076 nM; that for B6, 0.195 nM; that for B7, 0.203 nM. Consider B8, for which the “N-Terminal VD huTNFα Neutralization Assay IC50” value came out at 9 pM. Same read-out and setting: the result for B9 reads 16 pM; that for B10, 7 pM; that for B11, 71 pM.

Regarding B12, the “N-Terminal VD huTNFα Neutralization Assay IC50” value turned out to be 8 pM. Regarding B13, the “N-Terminal VD huTNFα Neutralization Assay IC50” value was 1 pM.

(Values after patent US20140271457A1 (AbbVie / Abbott, published 2014).)
